Measured values: the DeepSol protein solubility set

Test: soluble on expression in E. coli; label from the status in PepcDB or PDB records

Sequence	soluble on expression in E. coli
MGSDKIHHHHHHMGKLSLAAKITHVPSMYLSELPGRHHGCRAEAIRGHQAIGERCRALGVDTIVVADTHWLVNAGYHVNCNGHFAGVYTSNELPHFIRDMRYEYPGNPALGHLIAASANERGIGTRAHEIDSLELEYGTLVPMRYMNADQRFKVVSIAGWCMWHALDESRRFGEALRHAIDASDANVAFLASGSLSHRFNDNGSPEEAIHMISREFYRQVDLRVVELWKQGDFATFCKMLPEYNAHCHGEGGMHDTAMLLGLLGWDRYDKPVEIVTDYFASSGTGQINAIFPLP	not soluble
MGSDKIHHHHHHMGKSIRKIVNWKQYNQALVNRGSLTFWVDEAAVNTWYCHEHHGGRGRGFSYSDVAIETALMVKGIFNLSLRALEGFLNSLFTLMSVPLKSPDYTSISKRAKTVNIKYRNPSRGPIAHVVVDATGLKVFGEGEWKTRKHGSEKRRTWRKLHLAIDASTHEVVAAEVSLVSVGDNEVLPTLLNPLRRKITQVSADGAYDTKGCYQLLRRKGCKATIPPRSNAGLWEKRHPRNEAVEALKAGQLKHWKIDNGYHQRSLAETAMGRYKQLNSPMLSLRDYNGQVAEALAGVKAMNKVIRLGMPVRQQVA	not soluble
MGSDKIHHHHHHMGKTLAEKIFSEHVGRDVKAGEIVLARVDIAMAQDGTGPLMINEFRELGFKEVKVPKAFLFIDHASPSPRKELSNSQKMMREFGKEMGVKVFDAGDGISHQILAEKYVKPGDLVAGADSHTCTAGGLGAFGTGMGSTDVAIIFGLGQNWFKVPETIKVVVNGKLQDGVYAKDIILEIARILGSDGATYKALEFHGSCIENMNVEDRLTISNMAVEVGAKAGLMPSDEKTREFLKKMGREEDFRELKADPDAVYETEIEIDATTLEPLVSLPHYVDNVRKVSEVEKEKIKIDQVFIGTCTNGRLQDLEIALKILEKHGKHPDVRLIVGPASRKVYMDALEKGIIKKFVELGAAVIPPGCGPCVGIHMGVLGDGERVLSTQNRNFKGRMGNPNAEIYLASPATAAATAVTGYITDPRRFI	not soluble
MGSDKIHHHHHHMGTRKGDAMEKFDTVVIGAGQAGIATSEHLRALGIDHVVLERGRIAERWRSERWDSLVANGPAWHDRFPGMAFSCDGDVFADKECVARYFEDYAKMIDAPVRTGVTVERARPHADRAGFLVETSQGTFDARNLICATGPFQKPAIPPIIPETSDLTQMHSTAYRNPDALPDGAVLVIGGGSSGSQIAAELHDAGRKVFFSIGPHDRPPRRYRGRDNVWWLGVLGIWNMDTPAPGTEHVTIAVSGAHGGKTVDFRLLAERGITLLGMSSGYEDGVLHIANDLKTNLDAGDANMLSLLEAADAYIKRTGIDLPPEPEAWVIPDDPDCVSNPVRALDLSENNIGTVIWATGFQFDYDWLEADTLDDRGSPIHQRGISAVPGLYFVGLPWQSRRGSSFIWGVWHDAKFIADQIAIQENYLAYRPTASS	not soluble
MGSDKIHHHHHHMGVKSLVPQELIEKIKLISPGTELRKALDDIINANFGALIFLVDDPKKYEDVIQGGFWLDTDFSAEKLYELSKMDGAIVLSEDITKIYYANVHLVPDPTIPTGETGTRHRTAERLAKQTGKVVIAVSRRRNIISLYYKNYKYVVNQVDFLISKVTQAISTLEKYKDNFNKLLSELEVLELENRVTLADVVRTLAKGFELLRIVEEIRPYIVELGEEGRLARMQLRELTEDVDDLLVLLIMDYSSEEVEEETAQNILQDFITRREPSPISISRVLGYDVQQAAQLDDVLVSARGYRLLKTVARIPLSIGYNVVRMFKTLDQISKASVEDLKKVEGIGEKRARAISESISSLKHRKTSE	not soluble
MGSDKIHHHHHHMGVYHRIRVSRQTTTLPNIILTKKMIAAKDKAPQLTPQEYFIWEEQQLEKHEYINGEVYAMTGGSVNHGRIAIRFTAMFDSHLQNTGCITGNSDIKVNIFGSNNYTYPDASVTCDVRDQTTTQYITYPCLIVEVLSKTTEAYDRGGKFRMYRQNPALIDYLLVSSTSVEIDLYHKNDAGDWLIINYKPGDTIELKSINLNFPIEKVYRGLTLEPENGG	not soluble
MGSDKIHHHHHHMHLIDFMNEDIKKKLVKKTYKKKETILFAEQENEYVILMIDGIAEAFILNVKGNISTIHLYRSGSFFGEMEQFNDGKKPVEIVAFTDCNVYKLHRDDFLNWLRGDFEATKFLIREISSKLVVNAELIEELSSLSVKERLLRCISLHYYRSELNLLTKKQLASEVNAPIRSINRAINECVQEHLIAYENKRFSVINQREVLKNLPTT	not soluble
MGSDKIHHHHHHMHLSRDVVLLITHSGDFFTIDRVAEALAKKGVQPFRLDTDKFPLQVQLTAHFDKSQSHHTIEYDNHSISTEQVQAVWMRRIWEPNLSQELAPKFQEACIRESKATLDAFWDSLKGARWVDDLERINYANNKLRQLRIASEVGFVIPQTLVTNKAQAAREFFGQVNGKMVSKLLTTLSRSMEANSSFFLYTSIVKEKDLEDAESLRYCPMVFQEQIPKQMELRVVYVNGHVFVGALNADVYAATKADWRKPGVEVGAWQHHQLPDELVRRLQAFMGKFGLLFGSLDFILTPSGEYVFLEVNPIGEWGMLEKDLDLPIANAIADILLQN	not soluble
MGSDKIHHHHHHMHNVDQQELSKFEQMAHSWWDPNGSFKPIHLLNPLRFNYIQTKANGLFGKKVLDVGCGGGILSEAMAQAGAIVTGIDMTTEPLEIAKQHAIENGLTIHYQQTTVEDLRLNHTACNAEKFDVVTCMEMLEHVPDPLSVIQSCKALLKPDGVLFLSTINRTLKAYMLVVIGAEYLLKMLPKGTHEFEKFIKPAELLTWCDQASLECKEMKGYHFNPLTEKFWLNNDVSCNYIAMLKAK	not soluble
MGSDKIHHHHHHMHSAALLQKVDELPRLPKAIAELLDVVNNEDSTVKAVSEKLSHDPVLSARVLRLANSARFGCSREVGTIDDAVVRLGMQTLRTLVIASAVVGAVPKVEGFDLADFWGNTFEVAIICQELAKRLGTLPEEAFTCGILHSIGELLIVNGDPAVAATISAAVADGADRNLMEKELLGYDNAEIGALLAQSWKFTPHLVKGIQFQNHPKSAEPYSKLAGMLAMAKQIAADWDKIPDDERTSWLAQINILAGIKVDLGGLAEKLAKMHGQGMEMGKQLA	not soluble
MGSDKIHHHHHHMHSPRELALLYRQGKNITQLMRDERGLIHNSNEIIEISYDLQAGSYIESMGEAWMAEHNAEYCQQLAKVILSLCNPDSILEAGIGEATTLADLLPHLSKKISSYGFDISWSRVAYGKQWLQQQGISNTVLCTGNLCHIPFADNAVELVYTSHSLEPNGGNEAAILKELYRVTSKFLVLLEPGYELANKDAKHRMEQHGYCRNIKSIAQSLGYRILLHEFFPSSVNPLNPTVITIIEKPPSFEPAKHILACPKYKTPLENIENMLFSPESLMVYPIVGGIPCLGINNGLVASKFRELISKG	not soluble
MGSDKIHHHHHHMHTVAVERAARYDPSEVAEAMDRALASLGGMDTFVRPGERVLIKPNMLAAKAPERAVTTHPEVLRAVIRLVRKAGGIPLVGDSPGIGGFRAVAEKSGMAAVVREAGAELVPFDEAVAVPGSGLFRRMDVARPYLEADRLINLPKLKTHEMMTMTCAVKNLFGAVVGTAKAGWHLKAGADRELFARLLLEIYLLRPPDLTIVDGIVAMEGDGPGSGDPRPMGLILAGANAVAVDVVAAELAGIPKQLLWVERAAERLGIDGWDRSRIATVGLPPDDARVPDFRLPHLSDVQFGIPGFLKNRLRHHLTARPVPNPEGCHLCGACLDACPPRAISVRDGRLHFDYHACIRCFCCRELCPDGSLGVRDGVLLKLLKKFKE	not soluble
MGSDKIHHHHHHMIARKLADLGVDVIEAGFPASSEGEFIATRKIFEEIGDQVEVIGLSRSNKNDIDKTISTGISSIHLFIATSELHMKYKLKMTKEEVLNKIYESVKYAKDHGMIVEFSPEDATRTEEDFLFTAIRTAIEAGADRINIPDTVGTMHPFKYYDMIKKIVNFVGERIIVSVHCHNDFGLATANSLAGVYAGARQAHVTVNGIGERAGNASLEEVVMGIKKLLNYETNVKTWKLYEVSRFVAEMTGVPVPYFKAIVGDNAFGHESGIHVHGVIENPFTYEPISPEEVGNFRRLALGKHSGIHGLRKLLEEQGIYLSDDKLKIVLAEIKKLAESGNKVTVEDAKNIALKLMNS	not soluble
MGSDKIHHHHHHMICMAVGIASLLFNIEEALNICESIKQITHLEIGIDNISECSELCKYKERISKLGLSIGIHLPMELNTCENIEYIRNSWINFIEKIEFELKGFDLRYFNLHLGYVMTNRVRKNRDKYLGNSVDFLDKLNTNSYVCIENTYSKGGDFSNIGNISYDFEYIFKRIKNSKICFCYDTGHCLIDEDAYVKNLKDKIRLIHLSDNDGINDTHVGIGRGILSEEGIKEVLTLDAEYLVLEINYEDIEDTISKLNNIVGEG	not soluble
MGSDKIHHHHHHMIDGDSSPLLRKQSPYPHWQYLHPESGDRLRIVPERGGLVTDWCCNGHELLYLDQERFADPEKSIRGGIPVLFPICGNLPGDLLPLPSGEFILKQHGFARDQPWELQLLEDHSGVKLSFVDSEETRAAYPFSFLLEMVVRPIRNALEIDVNVHNRSQSAMPFSFGLHPYFKVTDLNKVRLEGLPNSCLNHLQMAEAETAIQLAALTEGVDFLTRPAGPVTLVDEASGRSLQLQHENPMDLTVVWTDPPRQMLCLEPWTGPREALISGDRKLEIEAGGQQRLRCSFSINLEKTVRAASC	not soluble
MGSDKIHHHHHHMIDKLEFFIALAKEEHFGRAAEACGVTQPTLSAGIKQLEGQLGVMLVNRGSRFQGLTPEGKQVLVWARRIVGDSRSMREEMRAARHGLSGRIRIAAIPTALAMVARLTTPFREKHPGVTFSVLSRTSIEVLSLLGNFDIDAGITYLDNEPLGRVTSVPLYDERYQLITAVGNPYSDRDKVTWAEISRLPLCLLTPDMQNRRIIDQHLAEAGVQVRPTLESNSMIVLFSHIRTGKWSSIMPLNLAETFGFSEPIRAIPIVEPDASHTVGLVAAPREPHTPLVQALLDEAMALADDFRAHR	not soluble
MGSDKIHHHHHHMIEITHGDILRADTEAIVNTVNCVGVMGRGIALQFKKAWPDNFKAYAAACNSKNVQPGKMFIFETGQLANPRFIINFPTKRHWKGASRIEDIESGLVALVADIQRLGIKSIAIPPLGAGLGGLDWLVVRDKIEAAMQPLTDVQILLYEPAGAPQNDRIAKQKEVPKMTAGRAVLIELMQRYLKGLLDPTVSLLEVHKLLYFMQEAGEPLRLKYEKAHYGPYAQNLRHVLNAIEGHFISGYADGGDKPEKELRLVPGAVKEAQEFLEQHPDTRERFTKVSELVEGFESPLGLELLATVHWLNKYEHVRSTDQVIESVHSWNTRKQLFTARQITIAEKVLARQNWLSA	not soluble
MGSDKIHHHHHHMIEKVEEKSKIIKTSKEYKRTIIEEKDKEWTKKLNDILSRSSFSNDELDKIKALIPKEILTNENVGEVVTEDGYAKPEYDEVFKSLFTLNNEYDLLVNFINDILKDAPYANRNIKPFTQIKRIIRVETDPTINYIGEKRPRLDILAEDEENNHINIEMQRAFENDYLERAEYYLSRVHGRKLEEGKEYKEIGKTIGIHILNHVKYNHIEDYVNCLRLTMDGHPDIYSSKTALYFIELPKIHKSDYIVNRIMLWGKLISNPSNLDVRVIAKNDSIIKKALDRLKELGSNEEYLLNLKRGAYIMNKSRNFKEEIERETAIRVAKEKDYKIIIMLKKNGFKLDDILNKFNDFDLSEDEIKEVYENN	not soluble
MGSDKIHHHHHHMIELIATAESVEQAVELLATGVDTLYIGEETFGLRLPVSFTRDEQREIVKRAHEMGKQVLVAVNGIMHPEKMKLVPEYLTFLKEINVDKITLGDPGIVFIMQRDGLEIPYVYDGETLVTSSRQINFWSKRGAIGAVLAREVPFEEMVAMEENLAVPAEILVYGATCIHQSKRPLIQNYYNYTKNDKGVTKDEGLFISEPKKPETHYSIYEDSHGTHIFANNDVNLMNELTNLYDHHYRTWKLDGLYTPGENFVAIARLFAEAKAALEAGTWSEDQAAHATAEIEKLHPTGRGLDNGFFDLSADAIK	not soluble
